Results from the supplement of paper PMC10567573.

B1: PCDHGA10 (parent)
chain: FGIEIEVTDINDNAPKFQAENLDV
B2: FUT8 (parent)
chain: NWRYATGGWETVFRPVSETCTDRS

Variants of: B1
Test: protein stability index of a GFP-peptide fusion (GPS, HEK-293T) (PSI 1-6); higher = more stable
Details: c terminus: a fixed tail appended
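Also: lentivirally expressed fusions sorted by FACS into six bins by GFP to DsRed ratio, PSI derived from sequencing read proportions per bin multiplied by bin number.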

Protein stability index, by site and new letter:
L22: A 3.34, V 3.42, N 3.69, Q 3.71
N21: W 1.37, F 1.84, C 2.47, V 2.33, Q 2.8, S 2.54, L 2.13, T 2.89, G 2.83, R 2.07, D 3.65, A 2.49, K 3.25, H 2.82, M 2.42, I 1.84, E 3.46, P 2.6, Y 1.73
N11: R 2.73, A 2.88, F 1.33, P 2.73, L 1.77, H 2.41, M 2.15, T 2.26, K 2.99, D 3.54, W 1.96, E 2.94, Y 1.76, V 2.3, I 2.04, Q 2.52, G 2.66, C 2.28, S 2.84
P15: S 3.14, H 2.73, T 3.41, K 3.51, L 2.41, M 2.66, Q 3.11, Y 2.23, D 3.62, A 3.37, E 3.24, G 3.52, N 3.6, C 2.5, R 3.36, V 2.55, I 2.25, W 2.05, F 1.84
A19: T 2.84, K 3.37, I 2.26, S 2.62, C 2.59, G 3.51, P 2.6, Y 1.95, V 2.37, R 3, F 2.42, L 2, D 3.56, H 3.18, W 1.59, E 3.83, N 2.82, M 2.53, Q 3.32
N13: T 3.1, L 1.91, Q 3.21, D 3.43, Y 1.78, M 2.08, H 2.36, I 2.66, S 2.48, W 1.54, G 2.99, K 3.12, R 2.67, V 2.27, A 2.85, E 3.35, P 2.83, C 2.52, F 1.84
D9: F 2.69, G 2.15, N 2.73, I 1.32, H 1.81, R 2.04, S 1.85, M 1.96, T 1.96, Y 3.18, K 2.45, P 2.53, Q 2.15, V 2.58
Q18: S 2.1, R 2.08, Y 1.53, F 1.68, H 2.93, V 2.54, D 3.56, A 2.88, G 2.94, E 3.33, T 2.77, N 3.25, K 3, I 2.13, P 2.41, C 2.44, M 2.13, L 2.26, W 1.93

Variants of: B2
Test: as above
Details: c terminus: a fixed tail appended

Protein stability index, by site and new letter:
R3: D 3.62, A 3.58, C 2.76
N1: I 3.1, A 1.16, W 1.53, L 1.99, K 2.4, Y 2.88, R 2.23, E 2.44, C 2.35, V 1.83, H 2.74, Q 4.02, T 1.68, G 2.12, D 1.7, M 1.12, S 2.12
W2: G 3.72, A 3.77, D 3.72, V 3.26, F 3.12, H 4, P 4.16, E 3.94, N 3.55, T 3.83, S 3.25, Q 3.96, Y 2.74, C 2.52, M 3.52
